Results: article PMC6450606, “Purification and biochemical characterization of FrsA protein from Vibrio vulnificus as an esterase” (PLoS ONE, 2019)

Target: the molecule itself
Experiment: SEC; native mass of purified VvFrsA by size exclusion chromatography, buffer and concentration not told

B1: Fermentation-respiration switch protein (FrsA) from Vibrio vulnificus (enzyme, UniProt Q7MN61 1-415, looked up)
chain: MSEEVSKNLSETLFVKHKQAKETSALTQYMPTSQSLLDEIKEKNGFSWYRNLRRLQWVWQGVDPIEQEQVLARIASSKHSRTDEQWLDTVMGYHSGNWAYEWTRLGMEHQKRAGEMTNEAASEALFSASLCYSIAGYPHLKSDNLAIQAQVLANSAYLEAAKKSKYIIKQLEIPFEKGKITAHLHLTNTDKPHPVVIVSAGLDSLQTDMWRLFRDHLAKHDIAMLTVDMPSVGYSSKYPLTEDYSRLHQAVLNELFSIPYVDHHRVGLIGFRFGGNAMVRLSFLEQEKIKACVILGAPIHDIFASPQKLQQMPKMYLDVLASRLGKSVVDIYSLSGQMAAWSLKVQGFLSSRKTKVPILAMSLEGDPVSPYSDNQMVAFFSTYGKAKKISSKTITQGYEQSLDLAIKWLEDELLR
notes: FrsA (fermentation-respiration switch protein) of Vibrio vulnificus; theoretical mass ca. 47 kDa; Gene cloned between NdeI and XhoI of pET-28a; also called VvFrsA; recombinant VvFrsA
For B1, the “stoichiometry N” value was 2.
